Assay results taken from patent publication US7186539.

Columns and labels:
[1] = biological target: T1, Peptide substrate EIDL-MVLDWHDR
T1 chain: EIDLMVLDWHDR

[2] = biological target: T2, Synthetic peptide substrate GLTNIKTEEISEISY-EVEFRWKK
T2 chain: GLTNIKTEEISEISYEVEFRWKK

[3] = biological target: T3, Synthetic peptide substrate SEISY-EVEFRWKK
T3 chain: SEISYEVEFRWKK

B1: CHO-BACE, recombinant human BACE construct Asp2-2LΔTM-His6 expressed in CHO cells (protein)
chain: TQHGIRLPLRSGLGGAPLGLRLPRETDEEPEEPGRRGSFVEMVDNLRGKSGQGYYVEMTVGSPPQTLNILVDTGSSNFAVGAAPHPFLHRYYQRQLSSTYRDLRKGVYVPYTQGKWEGELGTDLVSIPHGPNVTVRANIAAITESDKFFINGSNWEGILGLAYAEIARPDDSLEPFFDSLVKQTHVPNLFSLQLCGAGFPLNQSEVLASVGGSMIIGGIDHSLYTGSLWYTPIRREWYYEVIIVRVEINGQDLKMDCKEYNYDKSIVDSGTTNLRLPKKVFEAAVKSIKAASSTEKFPDGFWLGEQLVCWQAGTTPWNIFPVISLYLMGEVTNQSFRITILPQQYLRPVEDVATSQDDCYKFAISQSSTGTVMGAVIMEGFYVVFDRARKRIGFAVSACHVHDEFRTAAVEGPFVTLDMEDCGYNIPQTDESHHHHHH
Km [1]: 12 µM
Vmax (µmol min^-1mg^-1) [1]: 0.0196
kcat [1]: 0.0155 s⁻¹
kcat/Km [1]: 0.0013 sec^-1µM^-1
Km [2]: 4.9 µM
Vmax (µmol min^-1mg^-1) [2]: 0.435
kcat [2]: 0.345 s⁻¹
kcat/Km [2]: 0.0704 sec^-1µM^-1
Km [3]: 52 µM
Vmax (µmol min^-1mg^-1) [3]: 0.294
kcat [3]: 0.233 s⁻¹
kcat/Km [3]: 0.0045 sec^-1µM^-1

B2: pQE70-BACE (M)R36GSFVE...QTDES432RS(His)6 (protein)
chain: MRGSFVEMVDNLRGKSGQGYYVEMTVGSPPQTLNILVDTGSSNFAVGAAPHPFLHRYYQRQLSSTYRDLRKGVYVPYTQGKWEGELGTDLVSIPHGPNVTVRANIAAITESDKFFINGSNWEGILGLAYAEIARPDDSLEPFFDSLVKQTHVPNLFSLQLCGAGFPLNQSEVLASVGGSMIIGGIDHSLYTGSLWYTPIRREWYYEVIIVRVEINGQDLKMDCKEYNYDKSIVDSGTTNLRLPKKVFEAAVKSIKAASSTEKFPDGFWLGEQLVCWQAGTTPWNIFPVISLYLMGEVTNQSFRITILPQQYLRPVEDVATSQDDCYKFAISQSSTGTVMGAVIMEGFYVVFDRARKRIGFAVSACHVHDEFRTAAVEGPFVTLDMEDCGYNIPQTDESRSHHHHHH
Km [2]: 5.4 µM
Vmax (µmol min^-1mg^-1) [2]: 0.4
kcat [2]: 0.317 s⁻¹
kcat/Km [2]: 0.0581 sec^-1µM^-1
Km [3]: 55.5 µM
Vmax (µmol min^-1mg^-1) [3]: 0.345
kcat [3]: 0.273 s⁻¹
kcat/Km [3]: 0.0049 sec^-1µM^-1
